experiment: soluble on expression in E. coli; label from the status in PepcDB or PDB records

Soluble on expression in E. coli, not soluble:
MGSDKIHHHHHHMVGIVLASHGNFAEGIYQSAEMIFGKQQNVQTVTLSPNEGPEDFLNKLKQAIDSFDDQKQVLLLIDLWGGTPFNQSSGLLSGHEDSWAVVTGMNLPMVIEAYGSRSSMDSAQEIATHIIETGKDGIRIKPESLEPKKATATVKSSGQPHGTIAPGTVLGDGKIKYVLARVDSRLLHGQVAMSWTKSTNPNRILVVSDSVAKDRLRKSMIVEAAPPGVNTNVIPIKKMIEVAKDPRFGNTKALVLFENPEDALKTIEGGVDIKELNIGSMSHAVGKVAVNKVLSLGKEDVEAFDGLKKLGVKFDVRKVPGDSSENMDNIVIKLEKIYQVLNLKKIRRV
MGSDKIHHHHHHMVKELDLQSVQGTMLIPLWGRAYGSEKNKNILDDTEAIRIIKEFDFDFSTIENTFGEYGCITYITRARKIDDTIKQFITKHPNATIVNIGSGLDTTFSRIDNGTIHWYNLDLPDAISFRKTLIEDTSRNTSIAKSFFDTSWFDDIKYDPNDGILFISAGVFYYFKEEDLKKIVVAMSKRFPGGELYFDAESKFALNLSNATVKKSGNNGALMYFYINNPKTLEKWSPNIKVLSCSPFFKNIPTNKGWDGSTRIMIRIVNLIKMLKFVHLRFEK
MGSDKIHHHHHHMVKTVNWRDLLEPQTKIRDPLYGYIWVTDDELQIIDTPIFQRLRRVNQLALTKYVYPTAEHSRFVHSLGAMHCATQIFTGILNNTHSYHGIRAIDSANMLRRLRYAALLHDIGHIAFSHAAEKLILNPLQHEHLGQFIIANYSPISSILGEHIKPVISILADSVTQDNRLLHQIISGHLDADRADYLMRDSHACGVKYGEYDFERYMQAFGAINESNELKLFVHERDIFVIESFLVARHHYNMQVPYHRTRMGYDIILGRFLKEFLPKCDDAKLGLTVEEGAYTKVDLQKFEFFDDYSVFNHIKHEARTGNLWANMLLRQGHLCPVYDTTDSVDRGGKVFKKIIRRLKAKNFVEDDDFFQCRKEITASKLISTDEKENSLADTSRETIYVRTKSGKLVDIVKHSNIVRALRPVTIYRIYTSQKRKSEAEAVIADVCRKTQVDRRG
MGSDKIHHHHHHMVKYMKIVGITDLHGKLPPAVREFKDFADVLVVCGDITHFGKGIEVIEKLAELSDYMEVLCVPGNCDTKEVIDELNSFKLNIDRKVKKIENINFVGIGGSNKTPFNTPNEYTEEEIYNKLINVVKNLKNIFLVSHAPPYNTMADIVDLDKDIHVGSKSIRKIIEDFNENIRFCACGHIHESRCIDKIGNTIVVNPSPKSYFVYDTKKNMVVLDDFNGF
MGSDKIHHHHHHMVNFSYRVFAAVVEKKTFFHAAESLNVTPSAVSHSISQLENELGFPLFLRNHSGVELTNDGKTVLPVIQAILNTEEELYQVSASIKGLNSGRIRIGAFSSVCINWLPTIIRRFKNQYPQVEVTVFQGNFNQIADGVSNGSIDIGFSSLPVDDKLLVEPLIKDRIYCVAPSDFVPKDKMNVTNQDIGRRRFILQQIDYDRDTKKALDQYNVTPNSLTYSIDDQSILSMVESGLGLGILPELALKKLSGNVHIYPFDKNFARTICLVTNKNLAQAPSTKRMLKEINSFLRSNYKNQFLG
MGSDKIHHHHHHMVNLMNINSHYLHNNSHECVSLSVRSKGTTQCPDIKVTQKAHIELGTLATPQLVRRRSGRYTIRLRLKGHAKPFISVSTRTTNRSIAVMRQKELATTAKAFLLDNPEVSKEELREHLKAMAEWLLTEATDDYWNGLDIAWLEDAKVNLRNIAATERLSAVQQTHIVESLKVLEAGQKRVDYGDATGLLDFVADDNTDSANNHTQGSTIGVLSSNLENQQGGSSSVFTYDDLVSMTLAEKITTLATSSYRDLQSSFSTVRGYAPVDLMDRSAWLKARDELLANGKAAITVNKLFVKVRMAIDYALMNGHLQGRNPIEKMKLTKDAESKRRAMTDEEIQMVLKAAESAPEARRWAVLVSIITGARSAEVAQLTKENIVVVDGITCIDINDDEGKKVKNKHSIRLIPLIDGAYGFNLEAFLKFVNTREPKTAIFGMTAGTYTAYFGRSIKGSIDALKDTKNVCMHSLRHSLTGKLKAAGVPLADAQGVLGHSSQSITYDLYGKGHAIGRLSDALRLALSGTGQ
MGSDKIHHHHHHMVNPKLPVIWYGGDYYPEQWDEETFERDIRMFKEAGINVVTIGVFSWSLIQPDENTYDFSFFEKVMDRLYKEGIYVCLATPTSAPPHWMTQKYPEILFTDVNGVKREKGGRQNFCPNSEKYRYFARNIAEKLAEHFKDHPALVLWHVNNEYLNYCYCDICRGKFQNWLKEKYGTLDELNRRWNTRFWSQTFTAWEEIPVPTTRSVLVWRKDRYQSVLPELYLDYRRFMTQSMLECFLEEYRAIKKHTPDIPVTTNLIAATFKEWNYFEWAKHMDVAAWDNYPGYKEDFSVISLRHSLIRCLKEGKPFVLMEQSPSQACWRWYNPQKRPGEMRLWSYHALAHGAETLMFFQLRQSKGGVEKFHGAVITHVDSPNTRVFQEVKRVGEEIKSLSDILDARVVSQTALLFDWESWWAMEDTLTPSVDFRYLNEVQKYFKALVKTGLGVDVVGKDQNFERYRVLVAPVLYMVGKELAQKLKDYVSNGGILILTTMSGIVDEDDQVVLGGYPGYLRDLMGGYVEEIDALPPEEKNEILMFGKRYECSLVFDYIKTTTAEVLGRFGRDYYMNEPAVLRNNYGKGWVYYVGSSTSFDLVWDLVKFMEREHNLRAEIAPPDDVEVIKKIKGEKIFYFLFNHSHELQIVDLPEGMFRDLIKGNLYEKKVKLQPLDVLILLKE
MGSDKIHHHHHHMVRLNEIKMQDGKIFLITGANSGLGYETSKFLLERGATVIMCCRDLLKGEKAKKELLKFKFSGKIELVELDLSDLINVKKFAESIKNTFDHLDVLINNAGIMAPPKTLSKQGFEIQFAVNHLAHMFLTLELLPMLEEKNNSRVVTVTSGVQYFGKIQWEDLQGNLKYDRWASYAQSKLANVMFGLELDSKLKETNSKTSSLLAHPGFARTNLQPKSVEANQSWQEELAYKLMDPMFQSAKMGALPQITAATLTSASGGEQYGPRFNFRGFPKICRNAPKALNQTSRKKLWDISEKLIKDFDTLSKQSK
MGSDKIHHHHHHMVRTTKFGDLPVLHVFAASQAQTKLPTIIDYHGWTNQTATELGTAYQLVRAGFRVILPTAYLHGSRNDGTDLDRHPEHFWSIVGHSVAEFPQLVAALVAAGISDANKIGVMGTSMGGITAAGIMATQPTVVAGVSLIGSPEPVAFATDQVAQLPAALQAKLPAELIEQTYQQLAKFDLSEHPEALAGRPMFFFNGTADQMVPYQYIRDFKHRFKDEPALKATVFKRAEGGVHHVPHKIQEAAVAFLETNILK
MGSDKIHHHHHHMVSPEHLRRSKAVQRRTGRTFHIATRFLPERVRYPTYVLYAFFRLTDEIVDDEAPGPPDEQRRRLAHVRAAALGDRDPDDPVLAAFAALREDHDIPREEVTTFIDAMQQDVDTARYRSHDDLAEYLRGSSVAVGYMMLSIMDAPEPERARPHAASLGEAFQLTNFLRDVREDVLDYDRIYLPSQTLAAHGASHDDIAALSATPQVRDAIRAELDRTERLYRHGVAGIEHLPADCQFPVLAAAVMYADQHRLIRAQDCDVLSQRPTLTLRRRLSVVARTWLRWRVSDDPTAVFHAVTGIGEPDAGGVPEQSFAVRESQPTRAD
MGSDKIHHHHHHMVVIEFKNVSKHFNLYKNKSYSLKEKFLNKVLNRNKLEVEQLHVLKNASFKIGQGETIGIIGENGTGKSTSLKLVANIIRPNEGQVTVKGKISSLLEVGVGFQPDMTGRENVYLYGSIMGLSKKEIDERYDEIVEFAELENFMDTPVKNYSSGMYMRLGFSVAVTVNPDILLVDEVLAVGDANFQKKCLNKIQAFKEQGKTILFVSHDMSTVRRICDRCIFIRKGGEVIEGSTDRMVGLYMKLLYAKSEEHKKEEQKSEESLADFDFKLHEADEFKDGNREGNKKLEITKLYFSDKEGRPRNFFGTEENIKVNVEFRKNTDIKAAVMAFEIITEEGYKLIYHDCKQDGMLITEMKDTNMVSFSLQNELLLKSKYYFSIALMDENLQEIYDFRHKHYWFTIHEGNIKEDGKVKISCDWML
MGSDKIHHHHHHMVYPVRIDTIRYDRKFSFVVFVEDIQSSHQIIDNIMDIGDEIGYPYEVIVSAKDQVTDDYYSDEIKVVGTGLNRRSDGIQRSLKSSTGNYFVIFDPNIRYSLSYADLLYGYAETGSSEVLVSEILGFQTDVLRSVGGWRDLSYGEDIDLLVRVIDNYGVITYPFYGLKQIDLTELIKSTDSIRSGKIKKLRDLIISCNFKYQDIKTIAKILDKSSRISRLLYLSKILSNFARIRPYERPKNNYLTIMERIMESILAKEFLKITTVDFKPSLAISTKTAEYLAGESPLWRITEENGNFVREKI
MGSDKIHHHHHHMWGYLQGKQVALKRNRVDLYHFGYMIRSKSARKLGTTTAQQIKDITDEIRAFLVKDHRDILSESFMNKEKRAAVEQIIKSFLLSNQVVISDVPSEQLLNMVCDDIVGFGIIEPLKEDQDVTDIYINGTKEIIYEKIGEGELTFPYRFETEEEVKALAYKMVNSTSESLNTAKPYVDCVFPYIRINIALDELGGLGTTITIRKNADHLRASEERMLSTNQASKEMLDFLAAAVKAKMNILVAGATGTGKSEFMKFLASHIPKGKKKERTLVVEDNPELYLHRIFPEHHFVPMQCRASEVEENAIDFDRLLTNALRQGPKRLIVGESRGKEALKMINFFQTGHPGFTSVHARSAIEAVRRLMLMCLQSGANIDAQYLYELISQTFDVIVFLEKKDDGNRYITEMIELLDYRGDIQFNELSQFIPTYEEQDEINESIGKIHGQHIITGKMSAKMEKKFRSATSVNPALYAPFLSQQEVQYA
MGSDKIHHHHHHMWHLFLECAFKIFLFEHSFKYFLNNFSKLGRLIIPSLKKTQIMRNAEFDRKAVLCAAMSVFTAKGYAKTSMQDLTKATGLHPGSIYCAFENKKGLLIAAIGQYQDERHQQFVRLFDNDAPCLSNLSNYLTEIVDECLSQDMSKACLLTKTLNEVGSQDEEIKTLITANLTAWQAALTAVFSLAQKNNEIDSQANSQELAQYLMMGIYGLRTFAHTHKDGQQLAQLAKKLLADVSR
MGSDKIHHHHHHMYGIVIVEDEELERQALRTILTENIDGIRILGEARTGTEAVALIDSCEIDLMLVDINIPNLNGLEVIRHLRDRHADTKVIITTAYDYFETTRTAIQLKVDEYLLKPIRTQALVTTIQSCIGQLGAGRQCRELVGRIADLVEQDGYQEGVTLVRRHIEWICTQRGHVPRDLILDFAGALVALARDKGLRLPDALTQQIGQLRTMPLDAQTGYQALGTFLGVVDLLFDVTGERFGYSSNTVKKVLNYIERNLTKRITLEDAAEYANISPSYLSRMFKKTLNVNFISYLTTRRIELAKETLIGTERPITAISQELSYSDVNYFCKSFKKEVGVSPTEYRRQSRLAQGAPPPREAALATG
MGSDKIHHHHHHMYLSQLKAGGVICRQGETARLVPGFSSTYDLAKAAIAAKVSITDLIAKQGAGDTVDLAALAASGKLDCPVRHPDAAHMFLTGTGLTHTGSASARDNMHADTAGMSDSMKMFRMGLEGGKPKAGEWGVQPEWFYKGTGVNAIAPGDGLESPSFALDGGEEPEIAGFYVIDNDGTPVRLGFSLANEFSDHVTEKINYLYLAHSKLRPASFGPELLVGDLPANVTGASKILRDGKTVWEKPFLSGEDNMSHTIANLEYHHFKYGLFCQPGDLHVHMFGTATLSFADGFKTVPGDVFEVSASQFGLPLQNPLVVAAETPFAVKTL

Source: the DeepSol protein solubility set
